Data taken from US20210179726A1 (DINGFU BIOTARGET, published 2021).

T1: hGITR-EGFP on HEK293 cells (human, UniProt Q9Y5U5 26-241)
T1 construct: EGFP fusion expressed on transfected HEK293 cells; also called human GITR
T1 sequence (looked up): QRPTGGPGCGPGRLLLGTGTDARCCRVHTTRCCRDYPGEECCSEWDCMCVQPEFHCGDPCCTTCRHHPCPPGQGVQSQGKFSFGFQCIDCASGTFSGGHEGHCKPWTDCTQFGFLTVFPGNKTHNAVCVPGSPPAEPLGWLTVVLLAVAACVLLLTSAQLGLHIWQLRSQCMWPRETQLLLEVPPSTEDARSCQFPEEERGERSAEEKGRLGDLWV

T2: hOX40-EGFP on HEK293 cells (human, UniProt P43489 29-277)
T2 construct: EGFP fusion expressed on transfected HEK293 cells; also called human OX40
T2 sequence (looked up): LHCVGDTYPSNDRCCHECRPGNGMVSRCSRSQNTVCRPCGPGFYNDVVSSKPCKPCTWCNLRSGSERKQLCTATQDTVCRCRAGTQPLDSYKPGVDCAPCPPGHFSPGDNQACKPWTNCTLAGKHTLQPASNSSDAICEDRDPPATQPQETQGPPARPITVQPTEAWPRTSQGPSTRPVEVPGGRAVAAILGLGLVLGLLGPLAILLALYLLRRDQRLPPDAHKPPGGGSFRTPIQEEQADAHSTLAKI

T3: hCD27-EGFP on HEK293 cells (human, UniProt P26842 20-260)
T3 construct: EGFP fusion expressed on transfected HEK293 cells; also called CD27-EGFP cells; cell surface CD27
T3 sequence (looked up): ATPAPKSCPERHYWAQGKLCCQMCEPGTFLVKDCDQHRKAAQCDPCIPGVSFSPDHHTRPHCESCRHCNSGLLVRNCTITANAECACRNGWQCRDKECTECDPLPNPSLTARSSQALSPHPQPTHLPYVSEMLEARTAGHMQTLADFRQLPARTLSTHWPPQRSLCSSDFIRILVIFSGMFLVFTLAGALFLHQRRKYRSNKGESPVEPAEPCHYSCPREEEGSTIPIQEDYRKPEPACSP

T4: hCD27-muFc (human; mouse, UniProt P26842 20-192)
T4 construct: range 1-192; Secreted from HEK293, Protein A purified; not shown: mouse IgG1-Fc (muFc), residues 98 to 324 of UniProt P01868
T4 sequence (looked up): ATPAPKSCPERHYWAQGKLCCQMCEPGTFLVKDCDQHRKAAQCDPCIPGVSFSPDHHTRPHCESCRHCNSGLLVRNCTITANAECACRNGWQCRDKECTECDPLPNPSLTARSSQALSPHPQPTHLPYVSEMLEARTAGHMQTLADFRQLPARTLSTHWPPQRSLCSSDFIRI


Legend:
[1] = biological target: T1, hGITR-EGFP on HEK293 cells; experiment: FACS on hGITR-EGFP HEK293 cells
Protocol: (§1) The hCD137-EGFP, hOX40-EGFP and hGITR-EGFP cells as described in Example 1 were washed twice in PBS, 10 μg/ml of each chimeric antibody as prepared in Example 3 (m2E7, m2B8, m4H3, m3E7, m1A8, m4G1, m2G3, m2F11 and m3B8) was added to each type of cells and incubated at 4° C. for 30 min. Then it was washed twice with PBS, anti-human Ig-APC (Jackson ImmunoResearch Laboratories, Cat #109-135-098) was added and were incubated at 4° C. for 30 min, washed twice with PBS and resuspended in 300 μl PBS. In FIG. 2, NC represents negative control (PBS), a-hlg-APC represents secondary antibody only, the other panels represent results obtained with each of the corresponding clone, respectively.

[2] = biological target: T5, hCD137-EGFP on HEK293 cells (human, UniProt Q07011 24-255); experiment: FACS on hCD137-EGFP HEK293 cells
T5 construct: EGFP fusion expressed on transfected HEK293 cells; also called human CD137
T5 sequence (Q07011 24-255): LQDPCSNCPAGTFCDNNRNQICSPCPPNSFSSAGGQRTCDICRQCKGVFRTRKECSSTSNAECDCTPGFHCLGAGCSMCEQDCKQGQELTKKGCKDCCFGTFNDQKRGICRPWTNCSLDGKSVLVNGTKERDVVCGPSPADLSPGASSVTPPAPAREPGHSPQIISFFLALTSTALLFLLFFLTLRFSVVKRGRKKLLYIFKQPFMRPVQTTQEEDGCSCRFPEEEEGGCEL
Protocol: as §1

[3] = biological target: T2, hOX40-EGFP on HEK293 cells; experiment: FACS on hOX40-EGFP HEK293 cells
Protocol: as §1

[4] = biological target: T3, hCD27-EGFP on HEK293 cells; experiment: FACS titration on CD27-EGFP HEK293 cells, 8 three-fold dilutions from 20 µg/ml, anti-human Ig-APC secondary, MFI; table drawn under the plot, unit from the x axis; no upper plateau reached
Protocol: Based on the above results of ELISA, 7 humanized antibodies were selected to examine their affinities to cell surface CD27. Briefly, 5×10⁵ CD27-EGFP cells prepared in Example 1 were washed twice in PBS, each of the humanized antibodies (d16647, d12996, d9419, 14822, 9424, d14822, d12674) was added. The antibodies were subjected to 3-fold serial dilution, starting from 20 μg/ml, to obtain 8 gradient dilutions for each antibody. The antibodies and the cells were incubated at 4° C. for 30 min. Then, it was washed twice with PBS, anti-human Ig-APC (Jackson ImmunoResearch Laboratories, Cat #109-135-098) was added, and incubated at 4° C. for 30 min, washed twice with PBS and resuspended in 300 μl PBS. Flow cytometry was then performed, and the results are shown in FIG. 6. m2F11 was used as a control.

[5] = biological target: T5, hCD137-EGFP on HEK293 cells; experiment: FACS dot plot on CD137-EGFP HEK293 cells, anti-human Ig-APC secondary
Protocol: as §1

hCD27-muFc [6] = biological target: T4, hCD27-muFc; experiment: BLI (Octet K2), antibody on Protein A biosensor, hCD27-muFc in solution
Protocol: Using the BLI method, each humanized antibody was immobilized on a Protein A biosensor at a concentration of 10 μg/ml, while hCD27-muFc was subjected to 2-fold serial dilution, starting from 100 nM, to obtain 5 gradient dilutions for each antibody. The reaction plate was placed on the Octet K2 instrument. The parameters were set to Baseline 70 s, Association 80 s, Dissociation 300 s, Baseline 260 s, Loading 40 s, and Custom 5 s.

hCD27-muFc [7] = biological target: T4, hCD27-muFc; experiment: ELISA, plate coated with hCD27-muFc, Test 2
Protocol: (§2) The ELISA plate was coated with 2 μg/ml hCD27-muFc, 100 μl/well and incubated at 4° C. overnight. Then it was washed once with 10 mM, pH 7.4 PBS/Tween (0.05%), blocked with PBST containing 5% skimmed milk powder and incubated at 37° C. for 2 h. After washing the plate for 4 times, the humanized antibodies were added and incubated at 37° C. for 40 min, then it was washed for 4 times. Anti-human IgG-HRP-conjugated secondary antibody (Sigma, Cat #A0170-1M) was added and incubated at 37° C. for 40 min. After washing, the plate was developed with TMB substrate and spectrophotometric analysis was performed at OD₄₅₀. In FIGS. 5A-5B, each curve represents the binding result obtained for one of the humanized antibodies. From the results, it can be seen that all these humanized antibodies could bind to human CD27.

hCD27-muFc [8] = biological target: T4, hCD27-muFc; experiment: ELISA, plate coated with hCD27-muFc, Test 1
Protocol: as §2

[9] = biological target: T2, hOX40-EGFP on HEK293 cells; experiment: FACS dot plot on OX40-EGFP HEK293 cells, anti-human Ig-APC secondary
Protocol: as §1

Row | Binder | binding result [1] | binding result [2] | binding result [3] | binding result [5] | binding result [9] | further results
1 | m2B8 (antibody, human IgG1, V domains shown, Chimeric antibody: mouse VH/VL on human IgG1 / human kappa constant regions; also called clone 2B8; not shown: human IgG1 constant region, UniProt P01857) VH: EVQLQESGGGLVQPKGSLKLSCAASGFNFNTYTMNWVRQAPGKGLEWVARIRYKSNNYATYYADSVKDRFTISRDDSESILYLQMNNLRTDDTAIYFCVRELGLWYFDVWGAGTTVTVSS VL: DIVMTQSPSYLAASPGETITINCRASKSISKYLAWYREKPGKTNNLLIYSGSTLQSGIPSRFSGSGSGTDFTLTISSLEPEDFAMYYCQQHNEYPLTFGAGTKLELK | no binding (tested: 10 µg/ml) | no binding (tested: 10 µg/ml) | no binding (tested: 10 µg/ml) | – | – | –
2 | m2F11 (antibody, human IgG1, V domains shown, Chimeric antibody: mouse VH/VL on human IgG1 / human kappa constant regions; Parent of the humanized antibodies; also called clone 2F11; not shown: human IgG1 constant region, UniProt P01857) VH: EVQLQESGGDLVKPGGSLKLSCAASGFTFSSYAMSWVRQTPEKRLEWVAIIGDGDTYTYYPDSVKGRFTVSRDNAKNNLYLQMSHLKSEDTAMYYCVRTRGGPFDYWGQGTTLTVSS VL: DIVLTQTPALMSASPGEKVTMTCSASSSVGSMHWYQQKSGTSPKRWIYDTSKLASGVPARFSGSGSGTSYSLTISSMEAEDAATYYCQQWSSIPPTFGAGTTLELK | no binding (tested: 10 µg/ml) | – | – | no binding (tested: 10 µg/ml) | no binding (tested: 10 µg/ml) | LogEC50 [4]: 0.417 Log10(ug/ml); Kd (hCD27-muFc [6]): 0.835 nM; koff (hCD27-muFc [6]): 0.000108 s⁻¹; kon (hCD27-muFc [6]): 130000 M⁻¹ s⁻¹; EC50 (hCD27-muFc [7]): 0.0279 µg/mL; EC50 (hCD27-muFc [8]): 0.0315 µg/mL
3 | m2G3 (antibody, human IgG1, V domains shown, Chimeric antibody: mouse VH/VL on human IgG1 / human kappa constant regions; also called clone 2G3; not shown: human IgG1 constant region, UniProt P01857) VH: EVKLQESGGGLVKPGGSLKLSCAASGFTFSSFAMSWIRQTPEKRLEWVAAISDGGTYTYYPNNVKGRFTISRDDAKNNLYLQMSHLKSEDTAMYYCVRNRGGPFDYWGQGTTLTVSS VL: DIVLTQSPAIMSASPGEKVTMTCSASSSVSYMNWYQQKSGTSPKRWIYDTSKLASGVPVRFSGSGSGTSYSLTISSMEAEDAATYYCQQWNSNPPTFGAGTKLELK | no binding (tested: 10 µg/ml) | – | – | no binding (tested: 10 µg/ml) | no binding (tested: 10 µg/ml) | –
4 | m2E7 (antibody, human IgG1, V domains shown, also called clone 2E7; not shown: human IgG1 constant region, UniProt P01857) VH: EVQLQESGPELKKPGETVKISCKASGYTFTTYGMSWVKQAPGKGLQWMGWINTNSGVPTYVEDFKGRFAFSLESSANTAYLQINNLKNEDTAIYFCTREGDALDYWGQGTSVTVSS VL: DIVMTQSTAIMSASPGEKVTMTCSASSSVSYMHWYQQKSGTSPRRWIYDTSRLASGVPARFSGSGSGTSYSLTISSMEAEDAATYYCQQWSNTPPFTFGAGTKLELK | no binding (tested: 10 µg/ml) | – | – | no binding (tested: 10 µg/ml) | no binding (tested: 10 µg/ml) | –
5 | m3B8 (antibody, human IgG1, V domains shown, Chimeric antibody: mouse VH/VL on human IgG1 / human kappa constant regions; also called clone 3B8; not shown: human IgG1 constant region, UniProt P01857) VH: QVQLQESGPGLVAPSQSLSITCTVSGFSLTNYAVSWVRQPPGKGLEWLGVIWGDGTTNYHSALISRLIISKDNSKSQVFLKLNSLQTDDTATYYCAKEGDYGDYVGWFAYWGQGTLVTVSA VL: DIVLTQSPASLAVSLGQRATISCRASESVEYYGTSLMQWYQQKPGQPPKLLIYAASNVESGVPARFSGSGSGTDFSLNIHPVEEDDFAMYFCQQSRKIPYTFGGGTKLEIK | no binding (tested: 10 µg/ml) | – | – | no binding (tested: 10 µg/ml) | no binding (tested: 10 µg/ml) | –
6 | m1A8 (antibody, human IgG1, V domains shown, Chimeric antibody: mouse VH/VL on human IgG1 / human kappa constant regions; also called clone 1A8; not shown: human IgG1 constant region, UniProt P01857) VH: EVQLQESGAELVKPGASVKLSCKASGYSFTSSWMHWVKQRPGQGLEWIGMIHPDSGFTNYNEKFKSKATLTVDKSSSTAYMRLSSLTSEDSAVYYCARTSYYDTSYTSMDFWGQGNSVTVSS VL: DIVLTQSPAILSVSPGERVSFSCRASQSIGTSIHWYQQRTNGSPRLLIKYASESISGIPSRFSGSGSGTDFTLSINSVESEDIADYYCQQSNSWPLTFGAGTKLELK | no binding (tested: 10 µg/ml) | no binding (tested: 10 µg/ml) | no binding (tested: 10 µg/ml) | – | – | –
7 | m4G1 (antibody, human IgG1, V domains shown, Chimeric antibody: mouse VH/VL on human IgG1 / human kappa constant regions; also called clone 4G1; not shown: human IgG1 constant region, UniProt P01857) VH: QVQLQQSGPELVKPGASVKISCKASGYSFTAYNMNWVKQSKGKSLEWIGLINPNYATTSYNQKFKDKATLTVDQSSSTAYMQLNSLTSEDSAVYYCAYYSYYSYGGGYAMDYWGQGTSVTVSS VL: DILLTQSPAILSVSPGERVSFSCRASQSIGTSIHWYQQRTNGSPRLLIKYASESISGIPSRFSGSGSGTDFILSINSVESEDIADYYCQQSNSWPWTFGGGTRLEIK | no binding (tested: 10 µg/ml) | no binding (tested: 10 µg/ml) | no binding (tested: 10 µg/ml) | – | – | –
8 | m4H3 (antibody, human IgG1, V domains shown, Chimeric antibody: mouse VH/VL on human IgG1 / human kappa constant regions; also called clone 4H3; not shown: human IgG1 constant region, UniProt P01857) VH: QVQLQQSGPELVKPGASVKISCKASGYSFTAYNINWVKQTNGKSLEWIGIINPNYGTTSYNQKFKGKATLTVDQSSSTAYMQLNSLTSEDSAVYYCARRNGDYVGYAMDSWGQGTSVTVSS VL: DIVLTQSPAILSVSPGERVSFSCRASQSIGTSMHWYQQRKNGSPRLLIKYASESISGIPSRFSGSGSGTDFTLSINSVESEDIADYYCQQTNNWPWTFGGGTKLEFK | no binding (tested: 10 µg/ml) | no binding (tested: 10 µg/ml) | no binding (tested: 10 µg/ml) | – | – | –
